The values that follow come from IntAct's records for PubMed 14675534.

The labels stand for the following.
B1: Partitioning defective protein 3 (Caenorhabditis elegans), Q17353 (parent)
chain: MSASSTSSSSTSCPEGGEPSGSCKSSDEGESTLKKRMQQYGIASGYANSSISTLDRSQYQSLPLNGTRRVTVQFGRMKIVVPWKESDQTVGQLADAALLRYKKARGMANEDRIHVHRLECASDGGILDMDDVLEEVFDLNYDQILAITDEANGGSTTPTYSQIQKQQHHYAQPLPYARKFDGGPSTPIASAFGSVTVNHQAHRAASPYNVGFARSNSRDFAPQPTHSKERRDSVVEVSSFDQIPQSGLRVSTPKPSRQSEDVIDGKPMNQPILRSSLRTEASGSRTEEATPVKQSRVTLSPEVEKKLAEQDERKSERRKHYDKNPGRFARGSDRKSRITDALLDARDRIADQLESQNPAEETKSQMIRVKIDQGPMPGTSLVTFPPIPEKSENEKQLGIEVNAVFDESSELPGTSEPTKLSSVQIMKIEDGGRIAKDGRIRVGDCIVAIDGKPVDQMSIIRVRASISDLAAVTSRPVTLIINRSLESFLEQESSAKPIQSALQQANTQYIGHTTVVELIKSSNGFGFTVTGRETAKGERLFYIGTVKPYGVALGHLKSGDRLLEINGTPTGQWTQSEIVEKLKETMVGEKIKFLVSRVSQSAIMSTSASSENKENEETLKVVEEEKIPQKLPLPALMTPPVPKDTPALSPSGASRFEIVIPFINGSSSAGLGVSLKARVSKKSNGSKVDCGIFIKNVMHGGAAFKEGGLRVDDRIVGVEDIDLEPLDNREAQAALAKKLKEVGMISSNVRLTISRYNECNPGQISRDLSRITVDASSPSPSSRMSSHTAPDSLLPSPATRGTSSSGADSSHSRQSSASSAVPAVPARLTERDSIVSDGTSRNDESELPDSADPFNREGLGRKSLSEKRGMGAAADPQHIKLFQDIKHQRQNSAPTSSTQKRSKSQPRSSSQRNYRSPMKLVDLPTTAAASASTNSQNLDDSDMLNRRSQSMESINRPVESILRGTGQIPTGSSSKVQFMQAASPDQHPFPPGAALLRLKNEESRSRDKSRRKSMGNPFSAMRNFFGFGSKSRDASPEKTPTESVQLRSVERPKSIIDERNNGSSERAPPPLPPHQSQRRGSGGNVFVDYGEPYGLIPQYPHNTTSGYESYADSELYDRYAAHRYHPRGGPIIDEDEYIYRQQSTSGNSPINTSSYVNYGLPASNAYHVGSRIPPQTSSGSISKTSGAMRRVYPAEYDEDVAYHQQIPQQSTRYQQGSGSGRGNADYHHMFNSWFAYTGGGAVGAAPVIKSSYGSSPVRIAAASAIERGESFVVEPVSGSSASATDRRGRSTSSGAVASGSSSTGFQYAAKEKYADARSGKFNGGSTRLFIPRHGGGLSAAAFATNFGGEAYETRGGGAGGSPSQYRRRDQGPPHRFPQY
partner: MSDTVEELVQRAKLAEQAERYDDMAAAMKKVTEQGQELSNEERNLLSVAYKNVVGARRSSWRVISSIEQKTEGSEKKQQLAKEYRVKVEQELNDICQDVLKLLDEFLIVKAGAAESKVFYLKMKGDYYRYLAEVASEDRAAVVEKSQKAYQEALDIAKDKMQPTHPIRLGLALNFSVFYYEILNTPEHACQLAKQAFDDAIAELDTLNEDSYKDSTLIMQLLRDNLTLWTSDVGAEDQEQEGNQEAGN

The variants in this assay derive from B1. As to conditions: with 14331_caeel par-5, P41932.
Turning to S960A, the “effect of a mutation on the interaction” value is “decreasing interaction”.
